Test results: US20140105914A1 (ANTITOPE, published 2014)

Experiments:
[1] = target: T1, Recombinant CTLA4-fusion protein comprising the extracellular domain of human CTLA4 fused to the human IgG1 … (human, UniProt P16410 36-161); experiment: ELISA on coated CTLA4-Fc
T1 construct: extracellular domain; Bought reagent; Coated on ELISA plates at 0.5 ug/ml; also called CTLA4-Fc; CTLA4-Ig; not shown: human IgG1 constant domain (Fc); a Factor Xa site lies between CTLA4 and Fc, since the fusion was cle
T1 sequence (looked up): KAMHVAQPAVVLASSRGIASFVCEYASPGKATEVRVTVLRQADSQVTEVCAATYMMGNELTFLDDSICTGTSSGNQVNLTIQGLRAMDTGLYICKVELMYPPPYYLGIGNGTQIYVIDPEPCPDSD

[2] = target: T2, human CTLA4 expressed on the surface of T-cells (human, UniProt P16410 36-223); experiment: flow cytometry on stimulated human CD4+ T cells, antibody at 5 ug/ml
T2 construct: whole, on cells; For flow cytometry the cells were fixed and treated with saponin; Also used as the target in the PBMC functional assays; also called CTLA4 expressed on T cells
T2 sequence (looked up): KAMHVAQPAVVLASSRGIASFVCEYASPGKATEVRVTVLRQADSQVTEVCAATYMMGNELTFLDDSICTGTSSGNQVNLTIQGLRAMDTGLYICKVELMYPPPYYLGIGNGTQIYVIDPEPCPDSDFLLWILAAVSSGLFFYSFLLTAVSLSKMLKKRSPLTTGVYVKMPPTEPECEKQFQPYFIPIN
Experimental: In order to determine whether the lead monoclonal antibodies bound to CTLA4 expressed on the surface of T-cells, a flow cytometric analysis was performed. Human peripheral T cells were isolated from human PBMC (peripheral blood mononuclear cells) and stimulated to enhance expression of CTLA4. CD4+ cells were purified from PBMC using a CD4⁺ T Cell Isolation Kit (Miltenyi Biotec, Bisley, UK), plated out in a 24 well plate (1×10⁶ cells/well) in AIM-V Medium (Invitrogen, Paisley, UK) and incubated at 37° C. overnight. Cells were stimulated with lonomycin (1 μg/ml) and PMA (phorbol 12-myristate 13-acetate) (50 ng/ml) and incubated 4 h at 37° C. Cells were washed once in AIM-V medium, fixed in PBS containing 2% formaldehyde for 15 min, and resuspended in FACS buffer (D-PBS containing 1% BSA, 0.05% sodium azide and 0.1% Saponin) at 2×10⁶ cells/ml and incubated 30 min at 4° C.
2×10⁵ cells were stained using either a 1 in 10 dilution of anti-CTLA4-PE conjugated antibody (BNI3) (Abcam, Cambridge, UK) as a positive control or with 5 μg/ml of individual anti-CTLA4 monoclonal antibodies together with a 1 in 50 dilution of anti-mouse IgG-PE conjugated antibody (Sigma). Mouse IgG (Sigma) was also included as separate controls for the different murine isotypes present within the lead monoclonal antibodies. […] Instrument settings were determined by analysis of relevant isotype control antibodies. […]

[3] = target: T2, human CTLA4 expressed on the surface of …; experiment: flow cytometry on CTLA4 expressed on T cells
[4] = target: T1, Recombinant CTLA4-fusion protein …; experiment: CTLA4 binding ELISA on coated CTLA4-Fc
[5] = target: T2, human CTLA4 expressed on the surface of …; experiment: cell-based or functional assay

B1: murine monoclonal antibody 8H5 (subclone 8H5-1B1) (antibody, V domains shown)
VH: QVQLQQSGDDLVKPGASVKLSCKASGYTFTSYWINWIKQRPGQGLEWIGRIAPGSGTTYYNEVFKGKATLTVDKYSSTAYIQLSSLSSEDSAVYFCARGDYGSYWGQGTLVTVSS
VL: QIVLTQSPAIMSASPGEKVTMTCSASSSISYMHWFQQKPGTSPKRWIYDTSKLASGVPARFSGSGSGTSYSLTINSMEAEDAATYYCHQRTSYPLTFGAGTKLELK
notes: Mouse hybridoma antibody with a kappa light chain; also called 8H5-1A1
Does B1 bind [1]?
Result: binds

Does B1 bind [2]?
Result: binds

B2: chimeric 3B10 human IgG1 antibody (antibody, V domains shown)
VH: EVQLQQFGAELVKPGASVKMSCKASGYTFTDYNMDWVRQSHGKSLEWIGNINPNSESTSYNQKFKGKATLTVDKSSSTAYMELRSLTSDDTAVYYCTRDGNRYDAWFAYWGQGTLVTVSS
VL: QIVLTQSPAIMSASPGEKVTMTCSASSSVTYMHWFQQKPGTSPKLWIYSTSILASGVPARFSGSGSGTSYSLTISRMEAEDAATYYCQQRTSYPLTFGTGTKLELK
modifications: Biotinylated when used as the labelled competitor in Example 6.
notes: Gamma 4 versions were also cloned; also called 3B10 chimeric antibody; parental 3B10 chimeric antibody
Does B2 bind [3]?
Result: binds

Does B2 bind [4]?
Result: binds

B3: chimeric 8H5 human IgG1 antibody (antibody, V domains shown)
VH: QVQLQQSGDDLVKPGASVKLSCKASGYTFTSYWINWIKQRPGQGLEWIGRIAPGSGTTYYNEVFKGKATLTVDKYSSTAYIQLSSLSSEDSAVYFCARGDYGSYWGQGTLVTVSS
VL: QIVLTQSPAIMSASPGEKVTMTCSASSSISYMHWFQQKPGTSPKRWIYDTSKLASGVPARFSGSGSGTSYSLTINSMEAEDAATYYCHQRTSYPLTFGAGTKLELK
modifications: Biotinylated when used as the labelled competitor in Example 6.
notes: Gamma 4 versions were also cloned; also called 8H5 chimeric antibody; h8H5 parent IgG1
Which results are given for B3?
binding result [3]: binds; binding result [4]: binds

B4: murine monoclonal antibody 3B10 (subclone 3B10-4F7) (antibody, V domains shown)
VH: EVQLQQFGAELVKPGASVKMSCKASGYTFTDYNMDWVRQSHGKSLEWIGNINPNSESTSYNQKFKGKATLTVDKSSSTAYMELRSLTSDDTAVYYCTRDGNRYDAWFAYWGQGTLVTVSS
VL: QIVLTQSPAIMSASPGEKVTMTCSASSSVTYMHWFQQKPGTSPKLWIYSTSILASGVPARFSGSGSGTSYSLTISRMEAEDAATYYCQQRTSYPLTFGTGTKLELK
notes: Mouse hybridoma antibody with a kappa light chain; also called 3B10-6E3
Does B4 bind [1]?
Result: binds

Does B4 bind [2]?
Result: binds

B5: lead humanised variant VH5/VK4 anti-CTLA4 antibody (antibody, V domains shown)
VH: QVQLVQSGAELKKPGASVKVSCKASGYTFTSYWINWIRQAPGQGLEWIGRIAPGSGTTYYNEVFKGRVTITVDKSTSTAYMELSSLRSEDTAVYFCARGDYGSYWGQGTLVTVSS
VL: EIVLTQSPATLSLSPGERATLSCSASSSISYMHWFQQRPGQSPRRWIYDTSKLASGVPARFSGSGSGTDYTLTISSLEPEDFATYYCHQRTSYPLTFGQGTKLEIKR
For B5, which “IFN-gamma secretion in human mixed lymphocyte reaction (T cell activation), antibody at 150 ug/ml, compared to MDX010” value [5] is on record?
The value was 2 fold.
